Series [1] addresses T1, LDH1, tetramer of full length human LDHB subunits (human, UniProt P07195 2-334). Briefly: cell-based or functional assay.
Series [2] concerns the target T2, human LDH5, tetramer of human LDHA subunits (human, UniProt P00338 1-332). Description: cell-based or functional assay.
Series [3] concerns the target T2, human LDH5, tetramer of human LDHA …. Description: MST on tetrameric LDH5, Kd from red-dye raw fluorescence.
Series [4] deals with T1, LDH1, tetramer of full length human …. Description: MST on tetrameric LDH1, 10 to 20 s on time.
Series [5] has the same target. Briefly: biochemical and biophysical evaluation, not specified further.

The record followed here is patent US20220289791A1 (UNIVERSIT CATHOLIQUE DE LOUVAIN, published 2022).

*1 amine or outer side, *2 acyl side, *3 side chain or, on linkers, in order; H or OH if unused. Bridges are numbered along the chain shown (N, C = ends). Where no end group is shown, it is not given here. C6F4(1,4-diyl) = Fc1c(F)c([*:2])c(F)c(F)c1[*:1]

In general, Kd refers to the equilibrium constant for the complex coming apart. The low end stands for tighter binding, the high end for weaker binding.

T1 sequence (P07195 2-334 limits assumed): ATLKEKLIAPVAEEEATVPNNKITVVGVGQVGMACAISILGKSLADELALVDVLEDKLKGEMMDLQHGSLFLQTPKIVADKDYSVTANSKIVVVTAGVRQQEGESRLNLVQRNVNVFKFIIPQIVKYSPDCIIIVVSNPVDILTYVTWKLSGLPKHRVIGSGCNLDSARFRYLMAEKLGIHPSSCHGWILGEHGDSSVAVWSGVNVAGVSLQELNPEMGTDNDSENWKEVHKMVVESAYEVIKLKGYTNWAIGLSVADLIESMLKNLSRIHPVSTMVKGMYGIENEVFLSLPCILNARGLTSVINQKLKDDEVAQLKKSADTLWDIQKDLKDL

B1: macrocyclic peptide MP7 (peptide)
peptide: CTLKCKLI-NH2
modifications: linker 1-5 via C6F4(1,4-diyl); N-terminus assumed
SMILES: CC[C@H](C)[C@H](NC(=O)[C@H](CC(C)C)NC(=O)[C@H](CCCCN)NC(=O)[C@@H]1CSc2c(F)c(F)c(c(F)c2F)SC[C@H](N)C(=O)N[C@@H]([C@@H](C)O)C(=O)N[C@@H](CC(C)C)C(=O)N[C@@H](CCCCN)C(=O)N1)C(N)=O
Turning to B1, in series [1], the “EC50 of disruption of the tetrameric state (normalised 350 nm intrinsic fluorescence)” value is 172 µM. The “ΔTm, thermal denaturation by nanoDSF, 400 µM MP7” value in series [1] was -1.5 ° C; in series [2], -5 ° C. For the same molecule, the results for the Kd in series [3] and in series [4] were roughly 117 µM and roughly 380 µM, respectively.
As to ATLKEKLIAPVAEEEATVP-NH2 [LB19, LDHB 19 N-terminal amino acid peptide], the binding result in series [5] is “no binding”.
